Reference: the RNAGym collection of RNA variant scans (doi:10.1021/acssynbio.7b00057)

B1: Pistol ribozyme (parent)
chain: GGGUCGUUGUUCCAUAAUCGCGUGGAUAUGGCACGCAAGUUUCUACCGGGCACCGUAAAUGUCCGACUGGAGCCGUUCGGGCGGCUAUAAACAGACCUCAGGCCCGAAGCGUGGCGGCACCUGCCGCCGGUGGUAAAAAAGAUCGGAAGAGCACACGUCU

Variants of: B1
Assay: aptazyme ON/OFF ratio, guanine; higher = stronger switching; co-transcriptional cleavage with and without guanine

| Variant | aptazyme ON/OFF ratio |
| --- | --- |
| U7G U8C G9U U10G U11A C12G | 1.34 |
| U7G U8C G9U U10G U11A C12U | 1.1 |
| U7G U8C G9U U10G U11A C12A | 1.3 |
| U7G U8C G9U U10A U11C C12G | 1.26 |
| U7G U8C G9U U10A U11C C12U | 1.72 |
| U7G U8C G9U U10A U11C C12A | 2.56 |
| U7G U8C G9U U10C U11C C13A | 1.34 |
| U7G U8C G9U U10C U11C C13U | 1.52 |
| U7G U8C G9U U10C U11C C13G | 1.08 |
| U7G U8C G9U U10C U11G C12U C13U | 1.28 |
| U7G U8C G9U U10C U11G C12U C13G | 1.21 |
| U7G U8C G9U U10C U11G C12U C13A | 1.34 |
| U7G U8C G9U U10G U11A C12A C13U | 1.38 |
| U7G U8C G9U U10G U11A C12A C13A | 1.12 |
| U7G U8C G9U U10G U11A C12A C13G | 1.15 |
| U7G U8C G9U U10C U11G C12G C13A | 1.08 |
| U7G U8C G9U U10C U11G C12G C13G | 1.11 |
| U7G U8C G9U U10C U11G C12G C13U | 1.08 |
| U7G U8C G9U U10A U11G C12A C13G | 1.09 |
| U7G U8C G9U U10A U11G C12A C13U | 1.11 |
| U7G U8C G9U U10A U11G C12A C13A | 1.1 |
| U7G U8C G9U U10A U11A C12U C13A | 1.23 |
| U7G U8C G9U U10A U11A C12U C13U | 1.33 |
| U7G U8C G9U U10A U11A C12U C13G | 1.16 |

| Variant | aptazyme ON/OFF ratio |
| --- | --- |
| U7G U8C G9U U10C C12G C13A | 1.31 |
| U7G U8C G9U U10C C12G C13U | 1.29 |
| U7G U8C G9U U10C C12G C13G | 1.22 |
| U7G U8C G9U U10C U11A C13G | 1.06 |
| U7G U8C G9U U10C U11A C13U | 1.79 |
| U7G U8C G9U U10C U11A C13A | 1.49 |
| U7G U8C G9U U10C U11A C12G | 1.98 |
| U7G U8C G9U U10C U11A C12U | 2.96 |
| U7G U8C G9U U10C U11A C12A | 2.7 |
| U7G U8C G9U U10A U11A C12G C13U | 1.19 |
| U7G U8C G9U U10C U11G C12A C13A | 1.18 |
| U7G U8C G9U U10C U11G C12A C13U | 1.25 |
| U7G U8C G9U U10C U11G C12A C13G | 1.21 |
| U7G U8C G9U U10G U11A C12G C13G | 1.12 |
| U7G U8C G9U U10G U11A C12G C13U | 1.25 |
| U7G U8C G9U U10G U11A C12G C13A | 1.16 |
| U7G U8C G9U U10A U11G C12G C13A | 1.13 |
| U7G U8C G9U U10A U11G C12G C13G | 1.13 |
| U7G U8C G9U U10A U11G C12G C13U | 1.1 |
| U7G U8C G9U U10A U11C | 1.37 |
| U7G U8C G9U U10A U11G | 2.29 |
| U7G U8C G9U U10C | 1.64 |
| U7G U8C G9U U10G | 3.44 |
| U7G U8C G9U U10G U11C C13G | 1.09 |

| Variant | aptazyme ON/OFF ratio |
| --- | --- |
| U7G U8C G9U U10G U11C C13U | 1.18 |
| U7G U8C G9U U10G U11C C13A | 1.38 |
| U7G U8C G9U U10C U11A C12G C13U | 1.2 |
| U7G U8C G9U U10C U11A C12G C13G | 1.31 |
| U7G U8C G9U U10C U11A C12G C13A | 1.39 |
| U7G U8C G9U U10G U11C C12U | 1.26 |
| U7G U8C G9U U10G U11C C12G | 1.38 |
| U7G U8C G9U U10G U11C C12A | 2.33 |
| U7G U8C G9U U10G C12G C13A | 1.28 |
| U7G U8C G9U U10G C12G C13G | 1.23 |
| U7G U8C G9U U10G C12G C13U | 1.23 |
| U7G U8C G9U U10C U11C C12G | 1.16 |
| U7G U8C G9U U10C U11C C12A | 1.42 |
| U7G U8C G9U U10C U11C C12U | 1.29 |
| U7G U8C G9U U10C C13A | 1.37 |
| U7G U8C G9U U10C C13G | 1.12 |
| U7G U8C G9U U10C C13U | 1.47 |
| U7G U8C G9U U10C U11C C12G C13A | 1.45 |
| U7G U8C G9U U10C U11C C12G C13G | 1.29 |
| U7G U8C G9U U10C U11C C12G C13U | 1.22 |
| U7G U8C G9U U10A U11A C12U | 2.3 |
| U7G U8C G9U U10G U11G C13G | 1.17 |
| U7G U8C G9U U10G U11G C13A | 1.22 |
| U7G U8C G9U U10C U11G | 1.76 |

| Variant | aptazyme ON/OFF ratio |
| --- | --- |
| U7G U8C G9U U10C U11A | 3.02 |
| U7G U8C G9U U10C U11C | 1.32 |
| U7G U8C G9U U10G U11C C12A C13A | 1.23 |
| U7G U8C G9U U10G U11C C12A C13U | 1.37 |
| U7G U8C G9U U10G U11C C12A C13G | 1.45 |
| U7G U8C G9U U10A U11G C12A | 1.12 |
| U7G U8C G9U U10A U11G C12U | 1.33 |
| U7G U8C G9U U10A U11G C12G | 1.19 |
| U7G U8C G9U U10G U11G C12A C13U | 1.34 |
| U7G U8C G9U U10G U11G C12A C13A | 1.11 |
| U7G U8C G9U U10G U11G C12A C13G | 1.12 |
| U7G U8C G9U U10G U11A C12U C13U | 1.36 |
| U7G U8C G9U U10G U11A C12U C13A | 1.21 |
| U7G U8C G9U U10G U11A C12U C13G | 1.23 |
| U7G U8C G9U U10G U11G C12G | 1.31 |
| U7G U8C G9U U10G U11G C12U | 1.35 |
| U7G U8C G9U U10G U11G C12A | 1.31 |
| U7G U8C G9U U10C U11A C12A C13G | 1.31 |
| U7G U8C G9U U10C U11A C12A C13A | 1.52 |
| U7G U8C G9U U10C U11A C12A C13U | 2.1 |
| U7G U8C G9U U10G U11A C13U | 1.12 |
| U7G U8C G9U U10G U11A C13G | 1.07 |
| U7G U8C G9U U10G U11A C13A | 1.08 |
| U7G U8C G9U U10C U11A C12U C13A | 1.72 |

| Variant | aptazyme ON/OFF ratio |
| --- | --- |
| U7G U8C G9U U10C U11A C12U C13G | 1.39 |
| U7G U8C G9U U10C U11A C12U C13U | 1.9 |
| U7G U8C G9U U10G C13G | 1.27 |
| U7G U8C G9U U10G C13A | 1.24 |
| U7G U8C G9U U10G C13U | 1.24 |
| U7G U8C G9U U10A U11C C13G | 1.05 |
| U7G U8C G9U U10A U11C C13U | 1.18 |
| U7G U8C G9U U10A U11C C13A | 1.42 |
| U7G U8C G9U U10A U11C C12A C13U | 1.59 |
| U7G U8C G9U U10A U11C C12A C13G | 1.33 |
| U7G U8C G9U U10A U11C C12A C13A | 1.28 |
| U7G U8C G9U U10C U11C C12U C13G | 1.41 |
| U7G U8C G9U U10C U11C C12U C13U | 1.27 |
| U7G U8C G9U U10C U11C C12U C13A | 1.55 |
| U7G U8C G9U U10G U11G C12G C13A | 1.11 |
| U7G U8C G9U U10G U11G C12G C13U | 1.25 |
| U7G U8C G9U U10G U11G C12G C13G | 1.23 |
| U7G U8C G9U U10C U11C C12A C13G | 1.22 |
| U7G U8C G9U U10C U11C C12A C13A | 1.52 |
| U7G U8C G9U U10C U11C C12A C13U | 1.54 |
| U7G U8C G9U U10C C12U C13U | 1.26 |
| U7G U8C G9U U10C C12U C13G | 1.24 |
| U7G U8C G9U U10C C12U C13A | 1.35 |
| U7G U8C G9U U10G U11C C12G C13A | 1.26 |

| Variant | aptazyme ON/OFF ratio |
| --- | --- |
| U7G U8C G9U U10G U11C C12G C13U | 1.29 |
| U7G U8C G9U U10G U11C C12G C13G | 1.04 |
| U7G U8C G9U U10A U11G C13G | 1.1 |
| U7G U8C G9U U10A U11G C13A | 1.14 |
| U7G U8C G9U U10A U11G C13U | 1.38 |
| U7G U8C G9U U10G U11C | 1.15 |
| U7G U8C G9U U10G U11A | 1.21 |
| U7G U8C G9U U10G U11G | 1.55 |
| U7G U8C G9U U10G C12A C13U | 1.24 |
| U7G U8C G9U U10G C12A C13G | 1.11 |
| U7G U8C G9U U10G C12A C13A | 1.37 |
| U7G U8C G9U U10A U11C C12U C13A | 1.48 |
| U7G U8C G9U U10A U11C C12U C13G | 1.25 |
| U7G U8C G9U U10A U11C C12U C13U | 1.56 |
| U7G U8C G9U U10G U11G C12U C13G | 1.08 |
| U7G U8C G9U U10G U11G C12U C13A | 1.17 |
| U7G U8C G9U U10G U11G C12U C13U | 1.44 |
| U7G U8C G9U U10C C12A | 2.08 |
| U7G U8C G9U U10C C12G | 1.87 |
| U7G U8C G9U U10C C12U | 1.12 |
| U7G U8C G9U U10A U11C C12G C13A | 1.14 |
| U7G U8C G9U U10A U11C C12G C13U | 1.31 |
| U7G U8C G9U U10A U11C C12G C13G | 1.05 |
| U7G U8C G9U U10G U11C C12U C13U | 1.16 |

| Variant | aptazyme ON/OFF ratio |
| --- | --- |
| U7G U8C G9U U10G U11C C12U C13A | 1.34 |
| U7G U8C G9U U10G U11C C12U C13G | 1.22 |
| U7G U8C G9U U10A U11G C12U C13A | 1.2 |
| U7G U8C G9U U10A U11G C12U C13U | 1.16 |
| U7G U8C G9U U10A U11G C12U C13G | 1.11 |
| U7G U8C G9U U10C U11G C12U | 2.47 |
| U7G U8C G9U U10C U11G C12A | 1.75 |
| U7G U8C G9U U10C U11G C12G | 1.1 |
| U7G U8C G9U U10A U11A C13A | 1.3 |
| U7G U8C G9U U10A U11A C13G | 1.08 |
| U7G U8C G9U U10A U11A C13U | 1.79 |
| U7G U8C G9U U10C C12A C13G | 1.27 |
| U7G U8C G9U U10C C12A C13U | 1.58 |
| U7G U8C G9U U10C C12A C13A | 1.49 |
| U7G U8C G9U U10G C12G | 1.5 |
| U7G U8C G9U U10G C12U | 1.25 |
| U7G U8C G9U U10G C12A | 1.58 |
| U7G U8C G9U U10C U11G C13G | 1.09 |
| U7G U8C G9U U10C U11G C13U | 1.38 |
| U7G U8C G9U U10C U11G C13A | 1.44 |
| U7G U8C G9U U10G C12U C13G | 1.39 |
| U7G U8C G9U U10G C12U C13A | 1.29 |
| U7G U8C G9U U10G C12U C13U | 1.34 |
